Here are results for one molecule from patent US20260021119A1, “TETRACYCLINE DERIVATIVES” (ICM (INSTITUT DU CERVEAU ET DE LA MOELLE ÉPINIÈRE), priority 2022, published 2026).

The test deals with p-tau (phosphorylated tau protein at Ser202, Thr205 residues). Nature of the test: p-tau (AT8) expression in cultured cortical neurons under oxidative stress. Also noted: key to Reduction of the % of p-tau+ somas: a favorable response, synonymous with a decrease in the number of p-tau+ cell bodies; ++: a favorable response, synonymous with a decrease in the number of p-tau+ cell bodies; +++=reference level; an unfavorable response is represented by a sign “−”, synonymous with an elevation of the number of p-tau+ cell bodies. The note with it: compounds 3 μM, APO 100 μg/mL; mouse cortical cultures exposed div 7-11 to DF12i. Format: cell-based, mouse. As to the method:
A culture model of cortical neurons from mouse embryonic brain was used, in which neuronal cells were subjected to a maturation step until day in vitro (div) 7, before being gradually exposed to phenol red formulated DMEM/Nutrient mixture F12 Ham supplemented with 20 μg/mL of insulin, and 2 μM of the NMDA receptor blocker MK-801 (DF12i).
Precisely, after 4 days of exposure to DF12i, between 10-15% of surviving neurons show a very strong AT8 immunosignal in their somas while only 1 to 1.5% of neuronal cell bodies are found immunopositive under conditions where oxidative stress is repressed by treatment with bovine apotransferrin (APO; 100 µg/mL, Sigma Aldrich), a glycoprotein with iron chelating properties. Likewise, overexpression of p-tau in cortical cell bodies is reduced by the two non-antibiotic tetracyclines compound of formula (C) ([…]) and compound of formula (Ib) ([…]): see the following Table: […]

B1: apotransferrin (protein, UniProt Q29443 20-704, looked up)
Serotransferrin: DPERTVRWCTISTHEANKCASFRENVLRILESGPFVSCVKKTSHMDCIKAISNNEADAVTLDGGLVYEAGLKPNNLKPVVAEFHGTKDNPQTHYYAVAVVKKDTDFKLNELRGKKSCHTGLGRSAGWNIPMAKLYKELPDPQESIQRAAANFFSASCVPCADQSSFPKLCQLCAGKGTDKCACSNHEPYFGYSGAFKCLMEGAGDVAFVKHSTVFDNLPNPEDRKNYELLCGDNTRKSVDDYQECYLAMVPSHAVVARTVGGKEDVIWELLNHAQEHFGKDKPDNFQLFQSPHGKDLLFKDSADGFLKIPSKMDFELYLGYEYVTALQNLRESKPPDSSKDECMVKWCAIGHQERTKCDRWSGFSGGAIECETAENTEECIAKIMKGEADAMSLDGGYLYIAGKCGLVPVLAENYKTEGESCKNTPEKGYLAVAVVKTSDANINWNNLKDKKSCHTAVDRTAGWNIPMGLLYSKINNCKFDEFFSAGCAPGSPRNSSLCALCIGSEKGTGKECVPNSNERYYGYTGAFRCLVEKGDVAFVKDQTVIQNTDGNNNEAWAKNLKKENFEVLCKDGTRKPVTDAENCHLARGPNHAVVSRKDKATCVEKILNKQQDDFGKSVTDCTSNFCLFQSNSKDLLFRDDTKCLASIAKKTYDSYLGDDYVRAMTNLRQCSTSKLLEACTFHKP
modifications: iron-free apo form
Consider B1, for which the “Reduction of the % of p-tau+ somas” value is recorded as “+++”.
